Target: TOPBP1 (UniProt Q92547)
Experiment: co-IP of FLAG-HTATSF1 with endogenous TOPBP1
Details: reference: wild type; sites S748

binding against the reference: lost
Substance: HIV Tat-specific factor 1 (HTATSF1) (from UniProt O43719) S748A

Reference: publication PMC11208909
